# ± gives the uncertainty stated by the source.
# B1: E-12-L; numbered along this chain (parent)
# chain: EASNCFAIRHFENKFAVETLICFNLFLNSQEKHY
# Variants of: B1
# Assay: amyloid nucleation score relative to WT ADan (yeast Sup35 reporter selection) (log enrichment difference); higher = more amyloid nucleation
# Description: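 Deep mutational scan of the ADan peptide fused to the Sup35 nucleation domain (SupN) in S. cerevisiae [psi-pin-], covering all single amino-acid substitutions and stop truncations (truncations = sequence up to the stop). After 24 h Cu2+ induction, cells were selected on -ADE-URA plates for 7 d at 30 °C. The nucleation score is log enrichment (output/input, deep sequencing) minus that of WT ADan, as the error-weighted mean of 3 biological replicates (DiMSum).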
row,Variant,amyloid nucleation score
1,EASNCFAIRHFLNKFAVETLICFNLFLNSQEKHY,-2.5 ± 0.15
2,EASNCFAIRHFMNKFAVETLICFNLFLNSQEKHY,-1.67 ± 0.21
3,EASNCFAIRHFNNKFAVETLICFNLFLNSQEKHY,-0.269 ± 0.14
4,EASNCFAIRHFPNKFAVETLICFNLFLNSQEKHY,0.357 ± 0.16
5,EASNCFAIRHFQNKFAVETLICFNLFLNSQEKHY,-0.321 ± 0.18
6,EASNCFAIRHFRNKFAVETLICFNLFLNSQEKHY,-0.892 ± 0.097
7,EASNCFAIRHFSNKFAVETLICFNLFLNSQEKHY,-0.259 ± 0.092
8,EASNCFAIRHFTNKFAVETLICFNLFLNSQEKHY,-0.329 ± 0.15
9,EASNCFAIRHFVNKFAVETLICFNLFLNSQEKHY,-2.02 ± 0.12
10,EASNCFAIRHFWNKFAVETLICFNLFLNSQEKHY,-2.66 ± 0.22
11,EASNCFAIRHFYNKFAVETLICFNLFLNSQEKHY,-0.651 ± 0.15
12,EASNCFAIRHFEAKFAVETLICFNLFLNSQEKHY,-0.453 ± 0.12
13,EASNCFAIRHFECKFAVETLICFNLFLNSQEKHY,-0.187 ± 0.12
14,EASNCFAIRHFEDKFAVETLICFNLFLNSQEKHY,0.0178 ± 0.13
15,EASNCFAIRHFEEKFAVETLICFNLFLNSQEKHY,-0.506 ± 0.14
16,EASNCFAIRHFEFKFAVETLICFNLFLNSQEKHY,-0.221 ± 0.11
17,EASNCFAIRHFEGKFAVETLICFNLFLNSQEKHY,1.19 ± 0.082
18,EASNCFAIRHFEHKFAVETLICFNLFLNSQEKHY,-1.45 ± 0.23
19,EASNCFAIRHFEIKFAVETLICFNLFLNSQEKHY,-0.0116 ± 0.13
20,EASNCFAIRHFEKKFAVETLICFNLFLNSQEKHY,-0.309 ± 0.14
21,EASNCFAIRHFELKFAVETLICFNLFLNSQEKHY,-0.652 ± 0.086
22,EASNCFAIRHFEMKFAVETLICFNLFLNSQEKHY,-0.696 ± 0.13
23,EASNCFAIRHFEPKFAVETLICFNLFLNSQEKHY,-0.534 ± 0.15
24,EASNCFAIRHFEQKFAVETLICFNLFLNSQEKHY,0.539 ± 0.16

row,Variant,amyloid nucleation score
1,EASNCFAIRHFERKFAVETLICFNLFLNSQEKHY,-1.97 ± 0.1
2,EASNCFAIRHFESKFAVETLICFNLFLNSQEKHY,-0.991 ± 0.09
3,EASNCFAIRHFETKFAVETLICFNLFLNSQEKHY,-0.39 ± 0.11
4,EASNCFAIRHFEVKFAVETLICFNLFLNSQEKHY,0.195 ± 0.09
5,EASNCFAIRHFEWKFAVETLICFNLFLNSQEKHY,-0.378 ± 0.12
6,EASNCFAIRHFEYKFAVETLICFNLFLNSQEKHY,-1.67 ± 0.15
7,EASNCFAIRHFENAFAVETLICFNLFLNSQEKHY,0.253 ± 0.096
8,EASNCFAIRHFENCFAVETLICFNLFLNSQEKHY,0.65 ± 0.11
9,EASNCFAIRHFENDFAVETLICFNLFLNSQEKHY,0.152 ± 0.13
10,EASNCFAIRHFENEFAVETLICFNLFLNSQEKHY,0.00624 ± 0.12
11,EASNCFAIRHFENFFAVETLICFNLFLNSQEKHY,0.137 ± 0.11
12,EASNCFAIRHFENGFAVETLICFNLFLNSQEKHY,-0.903 ± 0.091
13,EASNCFAIRHFENHFAVETLICFNLFLNSQEKHY,1.04 ± 0.14
14,EASNCFAIRHFENIFAVETLICFNLFLNSQEKHY,0.391 ± 0.12
15,EASNCFAIRHFENLFAVETLICFNLFLNSQEKHY,0.488 ± 0.073
16,EASNCFAIRHFENMFAVETLICFNLFLNSQEKHY,0.629 ± 0.11
17,EASNCFAIRHFENNFAVETLICFNLFLNSQEKHY,0.701 ± 0.12
18,EASNCFAIRHFENPFAVETLICFNLFLNSQEKHY,0.000567 ± 0.15
19,EASNCFAIRHFENQFAVETLICFNLFLNSQEKHY,0.601 ± 0.13
20,EASNCFAIRHFENRFAVETLICFNLFLNSQEKHY,-0.195 ± 0.084
21,EASNCFAIRHFENSFAVETLICFNLFLNSQEKHY,0.341 ± 0.075
22,EASNCFAIRHFENTFAVETLICFNLFLNSQEKHY,0.665 ± 0.1
23,EASNCFAIRHFENVFAVETLICFNLFLNSQEKHY,0.207 ± 0.08
24,EASNCFAIRHFENWFAVETLICFNLFLNSQEKHY,0.0928 ± 0.12

row,Variant,amyloid nucleation score
1,EASNCFAIRHFENYFAVETLICFNLFLNSQEKHY,0.185 ± 0.11
2,EASNCFAIRHFENKAAVETLICFNLFLNSQEKHY,0.534 ± 0.14
3,EASNCFAIRHFENKCAVETLICFNLFLNSQEKHY,-0.147 ± 0.14
4,EASNCFAIRHFENKDAVETLICFNLFLNSQEKHY,-2.5 ± 0.25
5,EASNCFAIRHFENKEAVETLICFNLFLNSQEKHY,-2.18 ± 0.19
6,EASNCFAIRHFENKGAVETLICFNLFLNSQEKHY,0.818 ± 0.089
7,EASNCFAIRHFENKHAVETLICFNLFLNSQEKHY,-2.51 ± 0.26
8,EASNCFAIRHFENKIAVETLICFNLFLNSQEKHY,0.203 ± 0.13
9,EASNCFAIRHFENKKAVETLICFNLFLNSQEKHY,-1.37 ± 0.17
10,EASNCFAIRHFENKLAVETLICFNLFLNSQEKHY,-0.25 ± 0.085
11,EASNCFAIRHFENKMAVETLICFNLFLNSQEKHY,0.405 ± 0.14
12,EASNCFAIRHFENKNAVETLICFNLFLNSQEKHY,-0.337 ± 0.14
13,EASNCFAIRHFENKPAVETLICFNLFLNSQEKHY,0.782 ± 0.18
14,EASNCFAIRHFENKQAVETLICFNLFLNSQEKHY,-0.502 ± 0.18
15,EASNCFAIRHFENKRAVETLICFNLFLNSQEKHY,-2.18 ± 0.14
16,EASNCFAIRHFENKSAVETLICFNLFLNSQEKHY,-0.453 ± 0.099
17,EASNCFAIRHFENKTAVETLICFNLFLNSQEKHY,-0.00209 ± 0.12
18,EASNCFAIRHFENKVAVETLICFNLFLNSQEKHY,0.0927 ± 0.095
19,EASNCFAIRHFENKWAVETLICFNLFLNSQEKHY,-1.15 ± 0.19
20,EASNCFAIRHFENKYAVETLICFNLFLNSQEKHY,0.0276 ± 0.12
21,EASNCFAIRHFENKFCVETLICFNLFLNSQEKHY,0.159 ± 0.14
22,EASNCFAIRHFENKFDVETLICFNLFLNSQEKHY,0.736 ± 0.15
23,EASNCFAIRHFENKFEVETLICFNLFLNSQEKHY,1.02 ± 0.13

# Source: the supplement of paper PMC12067230
